This passage reports amyloid nucleation score results from the supplement of paper PMC12042874.

± gives the uncertainty stated by the source.

The data set in a line: amyloid nucleation score (Sup35N fusion, yeast selection) (log enrichment); library NNK2; higher = more nucleation; inactive = no reads after selection. The essentials: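 On medium lacking adenine and uracil, psi-negative yeast expressing peptides of 20 random codons fused to Sup35N were grown 7 days at 30°C after a 24-hour induction with 100 μM copper sulfate. Illumina sequencing of input and output plasmid inserts gave the reads, and sequences under 100 input reads were excluded. The nucleation score is the DiMSum log enrichment of output over input reads, centred on the mode score of non-aggregating sequences.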
The substance FLVFVLLGDR returned an amyloid nucleation score of 6.23 ± 0.07.

As to CDQYLIYNLSVSGMSIASRG, the amyloid nucleation score was -0.497 ± 0.79.

As to VIYIWVSVPITPWESIIRGI, the amyloid nucleation score result is “inactive”.

As to FSQFMKLNSRFIRRYMWCVL, the amyloid nucleation score is -0.891 ± 0.55.

With AFVSSQVSTYYNFRTKDYSW, the amyloid nucleation score was 3.68 ± 0.098.

For the substance RTGHTINFVEQPMHTVPMWH, the amyloid nucleation score was determined as 5.08 ± 0.068.

The substance TVFLIDTYTYDTVFNTSRCR showed an amyloid nucleation score of 3.76 ± 0.041.

In the case of KVRDCIMPRCRGRVCICNYG, the amyloid nucleation score is -0.29 ± 0.25.

Turning to ARLLWMRP, the amyloid nucleation score entry is “inactive”.

NWLLRG had an amyloid nucleation score of 1.26 ± 0.37.

In turn, ITGKTGVCSNNYTLKILGIV came in with an amyloid nucleation score of -0.826 ± 0.33.

Take GGTNYANLMLALWFVVMIST: the amyloid nucleation score was -0.295 ± 0.44.

Substance LFNVMLCMP registered an amyloid nucleation score of 4.17 ± 0.048.

As to QLIIMCVMGEQTICTVCHTG, the amyloid nucleation score stood at 7.153 ± 0.042.

With TRGPR, the amyloid nucleation score was 0.76 ± 0.46.

Take VHARYMIFWKWTILLHS: the amyloid nucleation score result is “inactive”.

GWQGISAVSRGTGCWLEGTG yielded an amyloid nucleation score of 0.649 ± 0.34.

The substance VFGSEVSNIRRESWRSLIGQ showed an amyloid nucleation score of 0.756 ± 0.18.

With SLLNQLIKRNKSNAYVVHGI, the amyloid nucleation score was -0.275 ± 0.4.

In the case of FKSVLWCKFLTDIG, the amyloid nucleation score stood at 6.04 ± 0.064.

MMLSYILR came in with an amyloid nucleation score of 0.223 ± 0.77.

For FFLIRSMGSSSAYRLRVCWR, the amyloid nucleation score is -0.37 ± 0.76.

As to RFTVFRSLKNYSRMHPLIKG, the amyloid nucleation score is 4.929 ± 0.046.

With VPLRA, the amyloid nucleation score is 0.002 ± 0.55.

As for GKFVLFRMMFNLVNYRSVLQ, the amyloid nucleation score was -0.731 ± 0.25.

In the case of TTHCRLYMYVWWMYVVIFFD, the amyloid nucleation score turned out to be 2.11 ± 0.16.

The substance ANMTSHEFRWKSN gave an amyloid nucleation score of -0.168 ± 1.1.

As for CIISFGLMHEYCYVAM, the amyloid nucleation score worked out at 1.9 ± 0.13.

LIMYGTKLSRLVMLLYYWTW: the amyloid nucleation score worked out at 0.031 ± 0.34.

MRLFVEFSVVLFYSFFNPFF: the amyloid nucleation score result was “inactive”.

Substance HKAFVAAVERWAEYLDADVS came in with an amyloid nucleation score of -0.585 ± 0.63.

In the case of RLLALLGSCYWAGLDVSARI, the amyloid nucleation score was found to be 3.36 ± 0.097.

VLFSDA had an amyloid nucleation score of -0.08 ± 1.

As to CLDNNKNYLDSRCGIRCY, the amyloid nucleation score result is “inactive”.

In the case of RSSSCSNVMMVE, the amyloid nucleation score was 0.935 ± 0.34.

For SSTEMSFYMIHKIFAVY, the amyloid nucleation score entry is “inactive”.

Consider IINSANM, for which the amyloid nucleation score came to 0.736 ± 0.74.

The substance SFKHLT registered an amyloid nucleation score of -0.853 ± 1.1.

WSSTVKSVKSAGAP showed an amyloid nucleation score of 0.475 ± 0.38.

In turn, ICVRERNRSYRMPFMMFVVR returned an amyloid nucleation score of -0.017 ± 1.

As for NALVVLDMFLTIRSSVKGFI, the amyloid nucleation score entry is “inactive”.

For the substance LHLEMTEW, the amyloid nucleation score result was “inactive”.

In turn, QWVVTRDFVE showed an amyloid nucleation score of -0.041 ± 0.63.

The substance IITMLGQEWAFGKLFDPLTL returned an amyloid nucleation score of 0.524 ± 0.34.

LHFSGFTKFRFIMVFGKKVC yielded an amyloid nucleation score of -1.24 ± 0.49.

For the substance LEMCVLR, the amyloid nucleation score came to 0.23 ± 0.45.

LTWSVVRKYSIALRCGGR came in with an amyloid nucleation score of -0.002 ± 0.63.

Regarding ISCSKMRRFWHL, the amyloid nucleation score is 0.587 ± 0.29.

On to GGYDP, for which the amyloid nucleation score entry is “inactive”.

On to HLTESHFGWFGSDVSSQTFL, for which the amyloid nucleation score came to 3.42 ± 0.084.

As to HVGVHSNFLQIS, the amyloid nucleation score was -1.34 ± 1.

Turning to ALPPPVKELPWISRFRQWGR, the amyloid nucleation score turned out to be 1.22 ± 0.47.

On to AAIMDTKVWLPETWHTF, for which the amyloid nucleation score is 4.86 ± 0.049.

TVTSLRSLPIMSMPCRETTD showed an amyloid nucleation score of 1.1 ± 0.25.

As to FLLTKSRCLEVFA, the amyloid nucleation score amounted to 4.68 ± 0.065.

For SARSIERSDYPMINARHHAC, the amyloid nucleation score amounted to 0.031 ± 0.34.

LHRKWFGYGCTCSWIGWEEW registered an amyloid nucleation score of -0.002 ± 0.48.

RYVLSMFQLLLTYVQL yielded an amyloid nucleation score of 0.561 ± 0.23.
